Source: the supplement of paper PMC10567573

B1: NEK8 (parent)
chain: VVGTPCYISPELCEGKPYNQKSDI

Variants of: B1
Test: protein stability index of a GFP-peptide fusion (GPS, HEK-293T) (PSI 1-6); higher = more stable
Conditions: c terminus: a fixed tail appended
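Further: lentivirally expressed fusions sorted by FACS into six bins by GFP to DsRed ratio, PSI derived from sequencing read proportions per bin multiplied by bin number.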

Protein stability index of substitutions, site by site:
K21: H 2.86; F 1.75; I 1.97; M 2.07; A 2.99; S 3.01; D 2.93; L 2.41; G 2.79; Y 2.2; P 2.45; C 2.51; W 2.65; T 2.48; E 2.48; R 2.26; Q 2.92; V 1.99; N 2.85
N19: A 2.79; W 2.02; R 2.45; Y 2.39; M 2.88; Q 3.19; D 3.22; E 2.94; F 2.14; K 2.98; P 2.82; H 2.48; S 3.1; L 2.21; C 2.46; I 2.38; V 2.73; G 2.48; T 2.98
Q20: H 2.59; I 2.24; E 2.63; P 2.31; G 2.71; T 2.48; L 2.55; K 3.15; D 2.54; S 2.49; A 2.44; C 2.57; M 2.22; W 1.89; R 2.84; V 2.79; Y 2.14; F 1.85; N 3.3
I24: F 2.51; K 3.63; P 3.18; M 2.95; Q 3.33; S 3.56; C 2.91; V 3.27; E 2.94; G 3.4; D 4.21; H 3.18; A 3.45; Y 3.08; T 3.97; R 3.51; N 3.35; W 2.63; L 2.79
Y18: T 3.68; G 3.45; R 3.58; N 3.63; F 2.67; W 2.6; D 3.53; H 2.7; L 2.8; E 3.72; P 3.4; K 3.67; V 3.67; A 3.6; S 3.86; I 2.79; M 3.15; Q 3.5; C 3.05
P17: H 2.9; L 2.23; V 2.55; R 3.38; F 1.99; T 3; Q 2.77; M 2.35; S 3.02; Y 2.27; D 3.05; E 3.09; G 2.76; N 3.12; K 2.99; I 2.39; W 1.65; A 2.91; C 2.22
G15: Y 2.34; Q 2.97; W 1.64; A 2.85; D 2.93; E 2.8; H 2.84; I 2.41; L 2.19; C 2.47; N 2.68; T 2.87; S 2.37; R 2.85; K 3.45; M 2.39; F 2.15; P 2.56; V 3.14
C13: T 2.94; S 2.9; W 1.92; V 2.95; Y 2.79
E14: S 2.38; C 2.73; R 2.51; D 2.45; N 2.52; M 2.28; Y 2.25; A 2.49; H 2.23; K 2.6; W 2.5; G 2.52; L 2.67; P 2.79; Q 2.37; T 2.73; F 1.82; I 2.2; V 2.23
D23: Q 2.36; G 1.82; N 2.56; V 2.02; I 2.19; P 2.35; Y 2.44; F 2.04; H 2.94; W 1.25
